Experimental data reported in patent US20250355001A1 (GTINVENT, published 2025).
Read-outs that look alike come from different tables or passages of the source.

B1: 412E10 scAb (scFv, not shown: small tags and cut ends)
scFv: QVQLQESGPSLVKPSQTLSLTCTVSGFSVISDSVAWVRQAPGKVPEWLGASGSSGNKYYNPALKSRLSITRDTSKSQVSLSLSSVTTEDTAVYYCARGIIAGVDVWGRGLLVTVSSEGKSSGASGESKVDDQAVLTQPSSVSGSLGQRVSITCSGSSSNVGYGNYVGWYQQVPGSAPKLLIYGTAIRASGVPDRFSGSRSGDTATLTITSLQAEDEADYYCASYQSNYAFFGSGTRLTVLG
notes: scAb
B2: E1E8 scAb (scFv, not shown: small tags and cut ends)
scFv: QVQLQESGPSLVKPSQTLSLTCTVSGFSLTDWGVAWVRQAPGKALEWLGTMRSGGTTDDNPALKSRLSITRDTSKSQVSLSLSSVTTEDMAMYYCARGYLSGVHYAWGRGLLVTVSSEGKSSGASGESKVDDQAVLTQPSSVSGSLGQSVSITCSGSSSNVGDGRYVSWFQQVPGSAPKLLIYDTTSRASGVPDRFSGSRSGNTATLIITSLQAEDEADYYCASIDSGNNLLFGSGTRLTVLG
notes: scAb
B3: 3aB7 scAb (scFv, not shown: small tags and cut ends)
scFv: QVQLQESGPSLVKPSQTLSLTCTVSGFSLTSNGVGWVRQAPGKVPEWVGDKSSAGKTYGNPALKSRLSITRDTSKSQVSLSLSSVTTEDTAVYYCVRCRDGGVTYGYDVDYWGPGLLVTVSSEGKSSGASGESKVDDQAVLTQPSSVSKSLGQSVSITCSGSSSNVGYGDVVSWFQQFPGSAPKLLIFGTTTRASGVPDRFSGSRSGNAATLTINSLQAEDEADYYCASFDSDSGGIAGSGTRLTVLG
notes: scAb
B4: 3bG4 scAb (scFv, not shown: small tags and cut ends)
scFv: QVQLQESGPSLVKPSQTLSLTCTISGFSLISNGVGWVRQAPGKVPEWVGDIASSGKAYSNPALKSRLSITRDTSKSQVSLSLRSVTTEDTAVYYCVRCRDGGVTYGYDIDYWGPGLLVTVSSEGKSSGASGESKVDDQAVLTQPSSVSKSLGQSVSITCSGSTSNVGSGNDVSWFQQVPGSAPKLLFYGATNRASGVPDRFSGSRSGNTATLTITSLQAEDEADYYCGSYDSNSGGIFGSGTRLTVLG
notes: scAb
B5: 412B9 (scFv)
scAb: QVQLQESGPSLVKPSQTLSLTCTVSGFSVISDSVAWVRQAPGKVPEWLGASGSSGNKYYNPALKSRLSITRDTSKSQVSLSLSSVTTEDTAVYYCARGIIAGVDVWGRGLLVSVSSEGKSSGASGESKVDDQAVLTQPSSVSGALGQRVSITCSGSSSNVGYGDYVGWYQQVPGSAPKLLIYGAASRASGVPDRFSGSRSGNTATLTISSLQAEDEADYYCASYDSSDGGVFGSGTRLTVLG
B6: 412E6 (scFv)
scAb: QVQLQESGPSLVKPSETLSLTCTVSGFSLTNYGVGWVRQAPGKALEWLGNIYSGGSTYYNPALKSRLSITRDTSKSQVSLSLNSVTLEDTAVYYCGRGGVGSVDVWGPGLLVTVSSEGKSSGASGESKVDDQAVLTQPPSVSGSPGQRVSITCSGGRNNIGRGTFVDWYQQLPGSGLKTVIYGTDRRPPGVPDRFSGSKTGNAATLTITSLQAEDEADYWCATYDYSNDMIILGSGTRLTVLG
B7: 3aD3 scAb (scFv, not shown: small tags and cut ends)
scFv: QVQLQESGPSLVKPSQTLSLTCTVSGFSLTSNGVGWVRRAPGKVPEWVGDISSGGKVYGHPALKSRLSITRDTSKSQVSLSVSSVTSEDTAVYYCVRCRDGGVSYGYDSDYWGPGLLVTVSSEGKSSGASGESKVDDQAVVTQPSSVSKSLGQSVSITCSGSSSNVGYGDYVGWFQQVPGSAPKLLIYGVTERASGVPDRFSGSRSGNTATLTISSIQAEDEADYYCASYDDSSGGIFGSGTRLTVLG
notes: scAb
B8: 3bF4 scAb (scFv, not shown: small tags and cut ends)
scFv: QVQLQESGPSLVKPSQTLSLTCTVSGFSLSSNGVGWVRQAPGKVPEWLGDISSVGKKYANPALKSRLSFTRDTSKSQVSLSLSSVTTEDTAVYYCVKCRDGGVTYGYDIDYWGPGLLVTVSSEGKSSGASGESKVDDQAVLTQPSSVSKSTGQTVSITCSGSSSNVGLRNYVTWFQQVPGSAPKLLIYGATSRASGIPDRFSGSRSGNTATLIISSLQAEDEADYYCASADTNDGGVFGSGTRLTVLG
notes: scAb
B9: CA12 scAb (scFv, not shown: small tags and cut ends)
scFv: QVQLQGSGPSLVKPSQTLSLTCTVSGFSFDSYYVGWVRQAPGKALEWLGNIYSTGRAFYNPALKSRLSITRDTSKSQVSLSVSSVTIEDTALYYCVRGSYYHGGGNGMVDFFDYWSPGLLVTVSSEGKSSGASGESKVDDQVVRTQPSSVSGSLGQRVSITCSGSSSNVGYGNYVGWFQQVPGSAPKLLIYAATSRASGVPDRFSGSRSGNTATLTIDSLQAEDEADYYCSSYQRGNTGVFGSGTRLTVLG
notes: scAb
B10: 3aH6 scAb (scFv, not shown: small tags and cut ends)
scFv: QVQLQESGPSLVKPSQTLSLTCTVSGFSLSSNGVGWVRQAPGKVPEWLGDISSVGKKYANPALKSRLSFTRDTSKSQVSLSLSSVTTEDTAVYYCVKCRDGGVTYGYDIDYWGPGLLVTASSEGKSSGASGESKVDDQAVVTQPSSVSGSLGQSVSITCSGSSGNVGYGDYVSWFQQFHGSAPKLLIYGATNLASGVPARFSGSRSGNTATLTISSLHAEDEADYYCASYDSSSGGVFGSGTRLTVLG
notes: scAb

Columns and labels:
[1] = target: T1, full length human tau protein 2N4R (hT40) (human, UniProt P10636 1-758); assay: hT40 ELISA
T1 construct: recombinant; also called T441
Target sequence in this assay (P10636 other isoform, or with tags, fused parts or gaps limits assumed): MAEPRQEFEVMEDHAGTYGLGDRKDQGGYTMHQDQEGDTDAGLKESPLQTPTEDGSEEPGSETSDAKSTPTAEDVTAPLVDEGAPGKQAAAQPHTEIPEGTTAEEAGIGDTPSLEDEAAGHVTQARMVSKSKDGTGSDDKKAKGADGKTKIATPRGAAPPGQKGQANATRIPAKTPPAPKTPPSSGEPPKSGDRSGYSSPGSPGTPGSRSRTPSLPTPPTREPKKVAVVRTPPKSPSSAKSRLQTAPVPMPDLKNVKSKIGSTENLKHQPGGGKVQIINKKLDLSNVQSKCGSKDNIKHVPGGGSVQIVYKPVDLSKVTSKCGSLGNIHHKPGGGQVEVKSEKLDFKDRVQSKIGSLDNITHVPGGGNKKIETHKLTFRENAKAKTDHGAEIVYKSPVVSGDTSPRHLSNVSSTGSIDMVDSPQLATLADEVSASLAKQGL

[2] = target: T1, full length human tau protein 2N4R …; assay: sandwich ELISA, S1D12 mAb capture, scAb detection
Description: Full length tau (hT40), at 1 μg/ml starting concentration was added to designated wells and double diluted across rest of the plates and left to incubate at R/T for 1 h. A series of detection scAbs with varying epitope recognition properties were added at 10 μg/ml to designated wells (FIG. 22). For colourimetric detection HRP conjugated anti-HuCk secondary antibody was used and the resulting immunoreaction was developed and absorbance at 450 nm measured as described previously. Cut-off point for a positive binding event was an absorbance value of 0.3 following background subtraction. In order to enhance the assay sensitivity, a chemiluminescent detection method was adopted where 50 μL SuperSignal ELISA Femto Substrate (Thermo Scientific) was added to each well following incubation with anti-HuCK HRP antibody and subsequent washing. The luminescence was read using Clariostar Plus microplate reader. A further modification to this protocol was done where various detection scAbs were directly conjugated with HRP and detected using chemiluminescent protocol as before.
Target sequence in this assay (P10636 other isoform, or with tags, fused parts or gaps limits assumed): as above

[3] = target: T1, full length human tau protein 2N4R …; assay: Biacore
Description: (§1) The capture antibody was diluted 1/100 in 10 mM Sodium acetate buffer pH 5.0 and passed over the activated chip surface for a period of at least 420 s. Final ligand immobilisation levels over 12,000 RU were deemed to be satisfactory.
(§2) The scAb to be tested was added only to flow cell 2 so that flow cell 1 could act as a control to subtract any interaction with the analyte and the chip surface. […] The multi-cycle protocol was as follows-Three start-up cycles composed of an initial capture, to the desired level, of the scAb to be tested was performed followed by a 30 s injection of glycine buffer pH 2.0 after each cycle to regenerate the chip surface. […] The target was added for a 120 s association period and 420 s dissociation period followed by another regeneration, 30 s injection of glycine buffer pH 2.0 in between each cycle.
(§3) The single cycle kinetics protocol was similar and utilised the same level of scAb capture. […] In single cycle kinetics the regeneration step was performed only after the final analyte concentration was added. Binding responses were analysed in Biacore X100 evaluation software and data fitted to a 1:1 binding model to obtain kinetic and affinity characterisation.
Target sequence in this assay (P10636 other isoform, or with tags, fused parts or gaps limits assumed): as above

[4] = target: T1, full length human tau protein 2N4R …; assay: SPR, summary table
Description: as §1, §2, §3
Target sequence in this assay (P10636 other isoform, or with tags, fused parts or gaps limits assumed): as above

[5] = target: T2, biotinylated tau peptide 412-441 (N-terminal biotin); assay: ELISA on biotinylated 412-441 peptide
T2 peptide: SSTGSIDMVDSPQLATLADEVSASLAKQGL
Description: (§4) A series of binding ELISA was performed using various truncated versions of the tau protein and 13mer peptide libraries spanning the entire hT40 molecule for mapping the epitopes of anti-tau scAbs (Full list of protein antigens used is given in Table 14). In general, ELISA plates were coated with 1 μg/ml hT40 or dGA or dGAE or other truncated versions of the protein and in the case of biotinylated peptides, plates were coated with 5 μg/ml Streptavidin followed by 1 μg/ml biotinylated peptide. The plates were blocked with 2% MPBS and scAb samples added at desired starting concentrations and double diluted across the plate. Binding was detected using anti-Human C Kappa HRP conjugated secondary antibody and the resulting immunoreaction was developed and absorbance values measured as described above.

[6] = target: T1, full length human tau protein 2N4R …; assay: hT40 ELISA; remark: listed apart in the source
Description: as §4

[7] = target: T1, full length human tau protein 2N4R …; assay: SPR, scAb captured, tau analyte
Description: as §1, §2, §3
Target sequence in this assay (P10636 other isoform, or with tags, fused parts or gaps limits assumed): as the sequence (P10636 other isoform, or with tags, fused parts or gaps limits assumed) above

[8] = target: dGA (tau 297-390) (human, UniProt P10636 614-707); assay: direct ELISA
Description: as §4

[9] = target: T1, full length human tau protein 2N4R …; assay: direct ELISA
Description: as §4

[10] = target: T3, dGAE (tau 297-391) (human, UniProt P10636 614-708); assay: SPR, scAb captured, tau analyte
T3 construct: monomer; also called dGAE95
Description: as §1, §2, §3

[11] = target: tau fragment 1-155 (human, UniProt P10636 1-472); assay: direct ELISA
Description: as §4

[12] = target: T4, tau fragment 1-49 (human); assay: direct ELISA
T4 construct: also called Tau 1-49
T4 peptide: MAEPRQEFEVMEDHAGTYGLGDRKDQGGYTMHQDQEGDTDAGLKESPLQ
Description: as §4

[13] = target: T1, full length human tau protein 2N4R …; assay: hT40 ELISA; remark: listed apart in the source
Target sequence in this assay (P10636 other isoform, or with tags, fused parts or gaps limits assumed): as the sequence (P10636 other isoform, or with tags, fused parts or gaps limits assumed) above

[14] = target: T5, aggregated dGAE (human, UniProt P10636 614-708, limits assumed); assay: sandwich ELISA, S1D12 mAb capture, SDS + Triton treated dGAE aggregates
T5 construct: dGAE aggregated in vitro with DTT, 700 rpm, 37 C, 24 h; also called dGAE aggregates; dGAE agg
Description: For aggregation, 1000 μL 100 μM dGAE+10 μL 10 mM DTT was added to a ‘LoBind’ microfuge tubes and agitated at 700 RPM/37° C. for 24 hours. Resulting sample centrifuged at 17,000×g/4° C. for 60 min and supernatant discarded to remove left over monomer. Pellet resuspended in half the original volume for future experiments and hereafter referred to as ‘aggregates’. 1 μl of aggregates was added to 1 ml of PBS and SDS was added to a final concentration of 1% (w/v). This was left to incubate on lab bench for 1 h with gentle agitation every 15 minutes. In order to neutralize the SDS effect on ELISA, Triton X-100 added to a final concentration of 3% (v/v) and mixed gently by pipetting to prevent any bubble formation. […] Similarly aggregates treated with only SDS or Triton X-100, untreated aggregates, dGAE monomers treated with only SDS or SDS+Titon X-100 were also added to designated wells as controls. All samples were then double diluted across the plate in final volumes of 100 μl. The final column was left with no protein to act as a blank.

[15] = target: T5, aggregated dGAE; assay: ELISA, direct immobilisation, SDS + Triton treated dGAE aggregates

T3 sequence (P10636 614-708 limits assumed): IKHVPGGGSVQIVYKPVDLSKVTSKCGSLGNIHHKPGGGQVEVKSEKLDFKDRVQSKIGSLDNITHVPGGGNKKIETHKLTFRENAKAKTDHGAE
T5 sequence (P10636 614-708 limits assumed): as above
Sequence of dGA (tau 297-390) (P10636 614-707 limits assumed): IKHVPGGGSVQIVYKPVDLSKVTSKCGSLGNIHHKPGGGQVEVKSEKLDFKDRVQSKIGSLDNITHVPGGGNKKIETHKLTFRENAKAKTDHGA

Binder | EC50 (read off the curve) [5] | Kd [7] | koff [7] | kon [7] | binding result [12] | further results
B1 | ~0.4 µg/mL | 3.16 nM | 0.00085 s⁻¹ | 271000 M⁻¹ s⁻¹ |  | EC50 (read off the curve) [1]: ~1 µg/mL; LoD chemiluminescence detection [2]: 0.37 ng/mL; LoD colourimetric detection [2]: 20 ng/mL; Kd [3]: 3.3 nM; Kd [4]: 3.16 nM; EC50 (read off the curve) [6]: ~1 µg/mL
B2 |  |  |  |  |  | binding result [8]: no binding (tested: 25 ug/ml); binding result [9]: no binding (tested: 25 ug/ml); Kd [10]: 6.3 nM; koff [10]: 0.0014 s⁻¹; kon [10]: 154000 M⁻¹ s⁻¹
B3 |  | 69 nM | 0.0143 s⁻¹ | 207000 M⁻¹ s⁻¹ |  | EC50 (read off the curve) [11]: ~0.8 µg/mL
B4 |  | 8.9 nM | 0.0597 s⁻¹ | 6.67e+06 M⁻¹ s⁻¹ | binds | 
B5 | ~2 µg/mL |  |  |  |  | 
B6 | ~2 µg/mL |  |  |  |  | EC50 (read off the curve) [1]: ~6 µg/mL; EC50 (read off the curve) [6]: ~6 µg/mL
B7 |  | 19.1 nM | 0.0104 s⁻¹ | 544000 M⁻¹ s⁻¹ | binds | 
B8 |  | 140 nM | 0.0153 s⁻¹ | 109000 M⁻¹ s⁻¹ |  | EC50 (read off the curve) [11]: ~1 µg/mL
B9 |  |  |  |  |  | EC50 (read off the curve) [13]: ~0.02 µg/mL; LoD [14]: 2 ng/mL; LoD [15]: 16 ng/mL
B10 |  | 3.6 nM | 0.00987 s⁻¹ | 2.76e+06 M⁻¹ s⁻¹ | binds | 
